Where no end group is shown, it is not given here.
The substances below were run against T1, TONSL ARD (Homo sapiens, UniProt Q96HA7) (assay: ITC of TONSL ARD binding to histone peptides). Settings: ITC (FIG. 13); for H4K20me1/2 also peptide pull-downs.
T1 construct: GST (N); made in house; host or cells: E. coli BL21(DE3)-RIL
T1 sequence (Q96HA7 512-692): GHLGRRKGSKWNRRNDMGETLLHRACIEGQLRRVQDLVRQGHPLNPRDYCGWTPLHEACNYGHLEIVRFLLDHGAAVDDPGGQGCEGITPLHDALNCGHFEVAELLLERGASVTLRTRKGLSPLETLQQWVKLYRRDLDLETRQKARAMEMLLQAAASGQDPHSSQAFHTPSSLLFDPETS
Description: All the ITC titrations were performed on a Microcal ITC 200 calorimeter at 25° C. […] The exothermic heat of the reaction was measured by 17 sequential 2.2 μl injections of the peptides (1.41 mM in buffer 20 mM Tris pH 7.5 and 0.5 M NaCl) into 200 μl of the TONSL ARD solution (145 μM in the same buffer), spaced at intervals of 150 s. The data were processed with Microcal Origin software and the curves were fit to a single […] binding model.

| binding to TONSL ARD | Substance |
| --- | --- |
| can bind TONSL ARD | H4 tail (9-25): unmodified histone H4 peptide, residues 9-25 (KGLGKGGAKRHRKVLRD; listed as Homo sapiens) |
| incompatible with TONSL binding | H4K20me1: histone H4 (residues 9-25) peptide with mono-methylation on Lys20 (GLGKGGAKRHRKVLRDN) [Example H4K20me1] |
| incompatible with TONSL binding | H4K20me2: histone H4 (residues 9-25) peptide with di-methylation on Lys20 (GLGKGGAKRHRKVLRDN) [Example H4K20me2] |
| totally disrupts binding with TONSL ARD | H18W: histone H4 (residues 9-25) peptide with His18 mutated to Trp18 (GLGKGGAKRWRKVLRDN) [Example H18W] |

The substances below were run against T2, TONSL acidic stretch and ARD (450-692) (Homo sapiens, UniProt Q96HA7) (assay: ITC analysis of TONSL acidic stretch and ARD with histone peptides). Settings: ITC (FIG. 35).
T2 construct: ITC analysis of TONSL acidic stretch and ARD (aa. 450-692); made in house; host or cells: E. coli BL21(DE3)-RIL
T2 sequence (Q96HA7 450-692): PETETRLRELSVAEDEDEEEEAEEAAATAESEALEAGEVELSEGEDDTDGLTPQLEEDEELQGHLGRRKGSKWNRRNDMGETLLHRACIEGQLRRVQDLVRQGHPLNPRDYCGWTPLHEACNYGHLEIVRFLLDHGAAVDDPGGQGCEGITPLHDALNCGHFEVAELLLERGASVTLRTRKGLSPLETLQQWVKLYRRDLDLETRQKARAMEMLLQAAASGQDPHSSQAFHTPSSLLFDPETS
Assay type: binding

| binding to TONSL (450-692) | Substance |
| --- | --- |
| does not bind | H3K9me1 (1-21): histone H3K9me1 (aa. 1-21) peptide |
| recognizes | H4 tail (9-25): unmodified histone H4 peptide, residues 9-25 (KGLGKGGAKRHRKVLRD; listed as Homo sapiens) |

The substances below were run against T3, TONSL ARD (amino acid 512-692 of TONSL of SEQ ID NO: 16) (Homo sapiens, UniProt Q96HA7) (assay: Native MS analysis of protein-peptide complexes). Settings: 10 μM TONSL-ARD, 50 mM NH4OAc pH 7.5.
T3 construct: GST (N, cleaved yes); made in house; host or cells: E. coli BL21(DE3)-RIL
T3 sequence (Q96HA7 512-692): T1 sequence (Q96HA7 512-692)
Assay type: binding
Description: Various peptides were obtained including the peptides described in Examples 11, 12, 13, 14 and 15. If the peptide was in the form of a trifluoroacetate salt (TFA salt), it was desalted on a polymeric weak cation exchange sorbent (Strata X-CW, Phenomenex, Sartrouville, France): Dry peptide (1-3 μmol) were solubilized in 200 μL pure water (Sigma-Aldrich, Lyon, France). The pH of the solution was adjusted to 7-7.5 by addition of 1 mM aqueous ammonium hydroxide solution (solution freshly prepared from 20% concentrated ammonium hydroxide). The exchange column was conditioned with 1 mL methanol (Sigma-Aldrich, Lyon, France) followed by 1 mL water. The solution was injected and the column was washed twice with 500 μL pure water. Finally the peptide was eluted by gravity with 2 times 500 μL of a 20:80:5 acetonitrile/water/formic acid mixture. The elution fraction containing the expected peptide was identified by mass spectrometry. The TFA-free solution was freeze-dried to get a white solid. The solid was dissolved in 300 μL pure water and the solution was freeze-dried for a second time.
A stock solution of the peptide was prepared by adding 300 μL of pure water to the resulting solid and the concentration of the solution was measured by UV at a wavelength of 205 nm. The extinction coefficient for the corresponding peptide sequence was calculated using the Nick Anthis online protein parameter calculator script (http://nickanthis.com/tools/a205.html). The absence of TFA adducts was confirmed by mass spectrometry with infusion of the protein-peptide mixture at low acceleration voltage (Vc 25 V) in native conditions.
Purified TONSL ARD (i.e. amino acid 512-692 of TONSL of SEQ ID NO: 16) was buffer exchanged against 500 mM NH4OAc pH 7.5 using a NAP 5 column (NAP™-5, GE Healthcare). Bradford protein quantitation was performed on buffer exchanged protein. […]
The mass spectrometry (MS) analysis were carried out on an electrospray time-of-flight mass spectrometer (LCT, Waters, Manchester, UK) equipped with an automated chip-based nanoESI device (Triversa Nanomate, Advion Biosciences, Ithaca, N.Y.). […] Mass spectra were recorded using reduced cone voltage (Vc=50 V) and elevated interface pressure (Pi=5 mbar) which correspond to fine-tuned instrumental settings providing sufficient ion desolvation while preserving the integrity of weak non-covalent complexes in the gas phase. […]
The proportion of 1:1 stoichiometry complex is calculated according to the following equation: […]
To estimate the binding affinities (Kd) of peptides for TONSL-ARD, a mixture of protein/peptide was analyzed at a constant peptide to protein ratio with decreasing protein concentration until the lowest detection limit was reached. […]

| Substance | % P1L1 (proportion of 1:1 stoichiometry protein-peptide complex) [%] |
| --- | --- |
| AKRHRKVLR-NH2 [Example 12] | 62.6 |
| KGGAKRHRKVLR-NH2 [Example 13] | 89.9 |

Next, values leading:

| % P1L1 (proportion of 1:1 stoichiometry protein-peptide complex) [%] | Substance |
| --- | --- |
| 81.4 | KGGAARHRKVLR-NH2 [Example 15] |
| 73.3 | KGGAKRHAKVLR-NH2 [Example 14] |

— patent US10961289B2, “Small molecules blocking histone reader domains” (The University of Copenhagen, priority 2015, dated 2021)
